{"source": "patent US11098109B2", "about": "“Single-chain variable fragment anti-CD133 antibodies and uses thereof” (REGENTS OF THE UNIVERSITY OF MINNESOTA, priority 2010, dated 2021)", "molecules": {"B1": {"name": "Hybridoma Clone 7: monoclonal antibody produced by Hybridoma Clone 7 that specifically binds to human CD133 (antibody, V domains shown)", "VL": "DIVLSQSPAIMSASPGEKVTISCSASSSVSYMYWYQQKPGSSPKPWIYRTSNLASGVPARFSGSGSGTSYSLTISSMEAEDAATYYCQQYHSYPPTFGAGTKLELK", "VH": "LEVKLVESGPELKKPGETVKISCKASGYTFTDYSMHWVNQAPGKGLKWMGWINTETGEPSYADDFKGRFAFSLETSASTAYLQINNLKNEDTATYFCATDYGDYFDYWGQGTTLTVSS"}}, "key": {"human prominin-1": {"molecular_target": "T1, human prominin-1 (Homo sapiens, UniProt O43490, DEL381-611)", "T1 construct": "His-tag (6xHis) (N); made in house", "T1 sequence (O43490 with tags, fused parts or gaps DEL381-611)": "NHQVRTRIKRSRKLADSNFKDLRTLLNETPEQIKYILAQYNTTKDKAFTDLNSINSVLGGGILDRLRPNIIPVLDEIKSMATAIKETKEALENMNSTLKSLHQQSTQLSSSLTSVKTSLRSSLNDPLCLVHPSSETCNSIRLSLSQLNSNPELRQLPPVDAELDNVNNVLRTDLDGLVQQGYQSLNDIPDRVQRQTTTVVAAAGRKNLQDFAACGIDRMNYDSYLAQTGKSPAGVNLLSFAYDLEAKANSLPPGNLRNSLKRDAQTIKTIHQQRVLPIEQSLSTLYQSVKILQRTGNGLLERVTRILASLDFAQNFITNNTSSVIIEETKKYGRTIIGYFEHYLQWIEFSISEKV", "assay": "ELISA of hybridoma supernatant on recombinant C-prominin-1", "assay_type": "binding", "settings": "supernatant at 1:1, 1:10, 1:100, 1:500 dilution", "experimental": "The hybridoma cells were cultured in DMEM with 10% FBS. When the cells were confluent, they were grown for additional 2-3 days. The supernatant was harvested for ELISA. The recombinant C-prominin-1 protein was coated at a 1:1000 dilution in 96-well plate and incubated at 4° C. ovemight. The coating buffer was discarded, the protein was washed 1 time, 300 μl/well of 5% milk buffer was added, and incubated at 4° C. overnight.\nThe hybridoma supernatant was diluted with 5% milk buffer at 1:1, 1:10, 1:100, 1:500 and 50 μL/well was added and incubated at 37° C. for one hour. The wells were washed four times, and 50 μL/well goat anti-mouse secondary antibody-HOURP conjugate was added at a dilution of 1:2000 and incubated at 37° C. for one hour. Washed four times, and added 50 μL/well substrate."}, "CD133^+ Caco-2 cells": {"test_system": "CD133^+ Caco-2 cells", "assay": "Immunofluorescence of fixed Caco-2 cells with hybridoma supernatants", "assay_type": "binding, human", "settings": "hybridoma supernatant", "experimental": "FIG. 2: Analysis of the newly generated CD133 hybridoma. Supematants of hybridoma clones were tested as a primary antibody in western blot (A) and Immunofluorescence (B) assays. Pre-immunized serum (-ve) or post immune anti sera (a.s.) served as controls. For western blot, Caco-2 lysates normalized for protein concentration were loaded onto a SDS-PAGE gel, resolved, blotted onto a nitrocellulose membrane and cut into strips. Each strip was probed with supernatant from the identified hybridoma. Membrane in Lane 1 was probed with a commercially available antibody (ab 19898, Abcam) and served as an additional positive control. For immunofluorescence, Caco-2 cells were fixed and immunostained with the hybridoma supernatants. A commercially available antibody (293C3, Militenyi) was used as additional positive control. Scale bars in the panel represent 200 micrometers. Supernatant of Hybridoma Clone 7 was used in the immunohistochemical analysis of primary glioblastoma and kidney tissue (C).\nCaco-2 cells were plated in 16-well chamber slides. After four days of growth, the cells were fixed with 4% paraformaldehyde, washed in DPBS and then incubated in 200 mM glycine for 10 minutes. The cells were then blocked with a solution of 0.5% BSA and 0.2% gelatin in PBS for 10 minutes. […] The cells were further washed with PBS and then visualized under a fluorescence microscope. […]"}}}
{"molecule": "B1", "values": [{"measurement": "reaction of supernatant with human prominin-1 in ELISA", "setting": "human prominin-1", "result": "binds its antigen with high specificity and affinity"}, {"measurement": "immunofluorescence staining of the Caco-2 cell membrane", "setting": "CD133^+ Caco-2 cells", "result": "robustly stained"}]}
